Literature values in PMC8506081.

What was measured:
[1] = target: PSD-95 (Homo sapiens) (UniProt P78352)
[2] = target: PSD-95 PDZ2 (Homo sapiens) (UniProt P78352)
Chain of PSD-95 PDZ2 (Homo sapiens) (P78352 157-249): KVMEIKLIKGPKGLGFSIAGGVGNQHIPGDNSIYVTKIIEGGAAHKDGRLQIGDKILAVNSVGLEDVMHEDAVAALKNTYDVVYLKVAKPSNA

Chain of PSD-95 (Homo sapiens) (P78352 whole entry): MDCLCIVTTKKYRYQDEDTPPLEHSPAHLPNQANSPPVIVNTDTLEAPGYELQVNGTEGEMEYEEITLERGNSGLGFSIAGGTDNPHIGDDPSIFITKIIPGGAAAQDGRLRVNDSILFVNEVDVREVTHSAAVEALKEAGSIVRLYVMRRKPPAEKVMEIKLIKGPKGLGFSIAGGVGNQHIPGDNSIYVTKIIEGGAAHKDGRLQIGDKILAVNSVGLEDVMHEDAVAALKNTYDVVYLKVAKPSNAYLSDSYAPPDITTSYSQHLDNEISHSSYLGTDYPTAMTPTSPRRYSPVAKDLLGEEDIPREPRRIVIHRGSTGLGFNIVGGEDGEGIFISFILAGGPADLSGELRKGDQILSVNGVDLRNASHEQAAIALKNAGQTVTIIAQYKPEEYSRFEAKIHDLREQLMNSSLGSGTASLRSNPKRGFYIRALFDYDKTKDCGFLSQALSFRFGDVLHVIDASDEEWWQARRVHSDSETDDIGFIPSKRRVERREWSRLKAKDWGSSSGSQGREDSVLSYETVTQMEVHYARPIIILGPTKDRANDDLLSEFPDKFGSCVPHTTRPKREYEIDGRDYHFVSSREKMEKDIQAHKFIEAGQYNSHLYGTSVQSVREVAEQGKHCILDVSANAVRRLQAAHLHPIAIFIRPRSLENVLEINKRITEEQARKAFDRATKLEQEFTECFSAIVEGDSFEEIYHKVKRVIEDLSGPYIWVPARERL

| Substance | Ki [1] | Ki [2] |
| --- | --- | --- |
| AVLX-125 | 10 nM |  |
| NA-1 |  | 4400 nM |
